Results on 5 molecules are retold here after PMC2809820.

In series [1] the target is T1, Ets-1 (rhEts-1) (human, UniProt P14921 1-441).
T1 sequence: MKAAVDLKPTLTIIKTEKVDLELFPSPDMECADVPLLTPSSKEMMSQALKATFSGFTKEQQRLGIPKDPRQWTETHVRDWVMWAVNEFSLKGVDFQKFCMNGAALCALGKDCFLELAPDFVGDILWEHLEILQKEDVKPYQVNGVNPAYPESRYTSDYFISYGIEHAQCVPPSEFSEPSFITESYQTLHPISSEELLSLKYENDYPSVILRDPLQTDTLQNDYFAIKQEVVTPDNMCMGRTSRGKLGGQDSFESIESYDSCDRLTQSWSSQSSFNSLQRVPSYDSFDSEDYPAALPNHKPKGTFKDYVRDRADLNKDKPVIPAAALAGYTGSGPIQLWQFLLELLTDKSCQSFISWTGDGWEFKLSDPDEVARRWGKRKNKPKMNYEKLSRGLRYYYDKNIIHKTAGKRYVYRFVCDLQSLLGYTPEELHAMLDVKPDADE
As to the kind of experiment: EMSA. For orientation: Mobility shift assays separate free from complexed probe on a gel.

Series [2] addresses T1, Ets-1 (rhEts-1). Description: competition.
In series [3] the target is T1, Ets-1 (rhEts-1). Description: competition. This is another data set of the same source.

B1: SC1_ETS1 (dsDNA)
DNA 1: CGGCCAAGCCGGAAGTGAGTGCC
DNA 2: GGCACTCACTTCCGGCTTGGCCG
As to B1, in the series with Ets-1 (rhEts-1) [1], the binding result was “binds”.

B2: RHS5 (dsDNA)
DNA 1: GGTAACACAGGAAGTCAGCAG
DNA 2: CTGCTGACTTCCTGTGTTACC
In the case of B2, in the series with Ets-1 (rhEts-1) [2], the binding result was “binds”.

B3: IL13P (dsDNA)
DNA 1: GTTCGGGGAGGAAGTGGGTAG
DNA 2: CTACCCACTTCCTCCCCGAAC
Take B3: the binding result in the series with Ets-1 (rhEts-1) [2] was “binds”.

B4: IL4P.2 (dsDNA)
DNA 1: TTTTCTCCTGGAAGAGAGGTG
DNA 2: CACCTCTCTTCCAGGAGAAAA
With B4, the binding result with Ets-1 (rhEts-1) [3] was “no binding”.

B5: IL4P.1 (dsDNA)
DNA 1: GATTTCACAGGAACATTTTAC
DNA 2: GTAAAATGTTCCTGTGAAATC
With B5, in the series with Ets-1 (rhEts-1) [3], the binding result is “no binding”.
